# From patent EP4667491A1
# Target: human CNTN4 expressed on the cell surface (human) (UniProt Q8IWV2)
# Experiment: flow cytometry; IgG on human CNTN4-overexpressing HEK293 cells
# Sequence of human CNTN4 expressed on the cell surface (human) (Q8IWV2 19-1000): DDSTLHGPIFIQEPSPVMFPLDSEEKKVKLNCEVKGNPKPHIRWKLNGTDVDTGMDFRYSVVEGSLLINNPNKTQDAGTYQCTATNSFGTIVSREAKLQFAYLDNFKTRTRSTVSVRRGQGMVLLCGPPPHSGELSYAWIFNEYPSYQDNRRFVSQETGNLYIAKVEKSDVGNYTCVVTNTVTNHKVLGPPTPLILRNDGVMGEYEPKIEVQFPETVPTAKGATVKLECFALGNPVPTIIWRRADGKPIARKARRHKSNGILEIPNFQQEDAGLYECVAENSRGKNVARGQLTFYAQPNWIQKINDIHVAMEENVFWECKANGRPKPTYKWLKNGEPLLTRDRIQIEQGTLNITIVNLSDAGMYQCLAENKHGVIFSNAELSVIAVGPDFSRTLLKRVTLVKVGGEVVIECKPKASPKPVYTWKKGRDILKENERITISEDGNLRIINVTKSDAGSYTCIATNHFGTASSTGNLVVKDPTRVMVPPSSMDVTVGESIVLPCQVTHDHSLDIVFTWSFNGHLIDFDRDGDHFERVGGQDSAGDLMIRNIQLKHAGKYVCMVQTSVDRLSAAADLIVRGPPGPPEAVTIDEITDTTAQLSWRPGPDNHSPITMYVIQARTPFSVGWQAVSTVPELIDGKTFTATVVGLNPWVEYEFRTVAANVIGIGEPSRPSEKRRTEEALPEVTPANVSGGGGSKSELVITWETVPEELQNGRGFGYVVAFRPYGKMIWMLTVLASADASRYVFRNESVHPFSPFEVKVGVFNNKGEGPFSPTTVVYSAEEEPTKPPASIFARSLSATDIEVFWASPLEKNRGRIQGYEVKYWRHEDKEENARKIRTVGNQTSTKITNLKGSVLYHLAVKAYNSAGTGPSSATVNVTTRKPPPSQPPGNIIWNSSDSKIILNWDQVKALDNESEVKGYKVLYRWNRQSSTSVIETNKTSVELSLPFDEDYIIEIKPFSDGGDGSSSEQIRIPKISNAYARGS
substance,measurement,value
human IgG4 antibody (negative control),Top MFI,13 MFI
